Experimental data from US20160272693A1 (ZEALAND PHARMA A S, published 2016).
*1 amine or outer side, *2 acyl side, *3 side chain or, on linkers, in order; H or OH if unused. Bridges are numbered along the chain shown (N, C = ends). [ ]: non-standard residue; d: D form. The star is where a group is joined. C20 diacid = O=C(O)CCCCCCCCCCCCCCCCCCC(=O)*; γGlu = O=C(O)[C@H](CCC(=O)[*:2])N[*:1]; Hyp = O=C(O)[C@@H]1C[C@@H](O)CN1; NMeI = CC[C@H](C)[C@H](NC)C(=O)O; Aad = N[C@@H](CCCC(=O)O)C(=O)O; Orn = NCCC[C@H](N)C(=O)O; Sar = CNCC(=O)O

biological target: T1, human amylin receptor 3 (hAMYR3), hCTR2 co-expressed with human receptor activity modifying protein 3 (hRAMP3) (human, UniProt P30988 25-474; O60896 24-148); test: cell-based or functional assay
T1 sequence (looked up) 1: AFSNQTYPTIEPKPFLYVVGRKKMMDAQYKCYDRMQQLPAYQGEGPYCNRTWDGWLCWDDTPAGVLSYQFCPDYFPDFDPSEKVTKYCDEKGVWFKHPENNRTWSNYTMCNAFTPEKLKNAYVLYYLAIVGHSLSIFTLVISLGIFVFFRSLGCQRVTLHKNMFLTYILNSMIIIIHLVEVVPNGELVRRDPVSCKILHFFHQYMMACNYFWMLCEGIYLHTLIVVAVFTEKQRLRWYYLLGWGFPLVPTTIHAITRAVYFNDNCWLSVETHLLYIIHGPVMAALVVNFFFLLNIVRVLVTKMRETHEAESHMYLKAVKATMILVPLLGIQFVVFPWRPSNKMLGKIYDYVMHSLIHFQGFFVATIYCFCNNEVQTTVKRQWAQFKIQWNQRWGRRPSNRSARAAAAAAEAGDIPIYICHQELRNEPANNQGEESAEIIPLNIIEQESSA
T1 sequence (looked up) 2: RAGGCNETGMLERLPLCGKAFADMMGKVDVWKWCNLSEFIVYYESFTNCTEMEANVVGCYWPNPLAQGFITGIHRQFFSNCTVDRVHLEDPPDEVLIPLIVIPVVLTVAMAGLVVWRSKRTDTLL

Binder | hAMYR3 EC50 (nM); cAMP induction
{C20 diacid-γGlu}-RCNTATCATQRLAHFL[Aad]RSSF[Sar]A[NMeI]LSSTEVGSNT[Hyp]-NH2 (disulfide 2-7; SMILES CC[C@H](C)[C@@H](C(=O)N[C@@H](CC(C)C)C(=O)N[C@@H](CO)C(=O)N[C@@H](CO)C(=O)N[C@H](C(=O)N[C@@H](CCC(=O)O)C(=O)N[C@H](C(=O)NCC(=O)N[C@@H](CO)C(=O)N[C@@H](CC(N)=O)C(=O)N[C@H](C(=O)N1C[C@H](O)C[C@H]1C(N)=O)[C@@H](C)O)C(C)C)[C@@H](C)O)N(C)C(=O)[C@H](C)NC(=O)CN(C)C(=O)[C@H](Cc1ccccc1)NC(=O)[C@H](CO)NC(=O)[C@H](CO)NC(=O)[C@H](CCCNC(=N)N)NC(=O)[C@H](CCCC(=O)O)NC(=O)[C@H](CC(C)C)NC(=O)[C@H](Cc1ccccc1)NC(=O)[C@H](Cc1c[nH]cn1)NC(=O)[C@H](C)NC(=O)[C@H](CC(C)C)NC(=O)[C@H](CCCNC(=N)N)NC(=O)[C@H](CCC(N)=O)NC(=O)[C@@H](NC(=O)[C@H](C)NC(=O)[C@@H]1CSSC[C@H](NC(=O)[C@H](CCCNC(=N)N)NC(=O)CC[C@H](NC(=O)CCCCCCCCCCCCCCCCCCC(=O)O)C(=O)O)C(=O)N[C@@H](CC(N)=O)C(=O)N[C@@H]([C@@H](C)O)C(=O)N[C@@H](C)C(=O)N[C@@H]([C@@H](C)O)C(=O)N1)[C@@H](C)O) [[19CD]-isoGlu-R-C( )-NTAT-C( )-ATQRLAHFL-Aad-RSSF-Gly(Me)-A-Ile(Me)-LSSTEVGSNT-Hyp-NH2 (Compd. 50)] | 0.19 nM
{C20 diacid}-[γGlu]RCGTATCATERLAHFLQRSSF[Sar]A[NMeI]LSSTEVGS[Orn]T[Hyp]-NH2 (disulfide 3-8; SMILES CC[C@H](C)[C@@H](C(=O)N[C@@H](CC(C)C)C(=O)N[C@@H](CO)C(=O)N[C@@H](CO)C(=O)N[C@H](C(=O)N[C@@H](CCC(=O)O)C(=O)N[C@H](C(=O)NCC(=O)N[C@@H](CO)C(=O)N[C@@H](CCCN)C(=O)N[C@H](C(=O)N1C[C@H](O)C[C@H]1C(N)=O)[C@@H](C)O)C(C)C)[C@@H](C)O)N(C)C(=O)[C@H](C)NC(=O)CN(C)C(=O)[C@H](Cc1ccccc1)NC(=O)[C@H](CO)NC(=O)[C@H](CO)NC(=O)[C@H](CCCNC(=N)N)NC(=O)[C@H](CCC(N)=O)NC(=O)[C@H](CC(C)C)NC(=O)[C@H](Cc1ccccc1)NC(=O)[C@H](Cc1c[nH]cn1)NC(=O)[C@H](C)NC(=O)[C@H](CC(C)C)NC(=O)[C@H](CCCNC(=N)N)NC(=O)[C@H](CCC(=O)O)NC(=O)[C@@H](NC(=O)[C@H](C)NC(=O)[C@@H]1CSSC[C@H](NC(=O)[C@H](CCCNC(=N)N)NC(=O)CC[C@H](NC(=O)CCCCCCCCCCCCCCCCCCC(=O)O)C(=O)O)C(=O)NCC(=O)N[C@@H]([C@@H](C)O)C(=O)N[C@@H](C)C(=O)N[C@@H]([C@@H](C)O)C(=O)N1)[C@@H](C)O) [[19CD]-isoGlu-R-C( )-GTAT-C( )-ATERLAHFLQRSSF-Gly(Me)-A-Ile(Me)-LSSTEVGS-Orn-T-Hyp-NH2 (Compd. 51)] | 0.11 nM
{C20 diacid}-[γGlu]RCGTATCATERLAHFLQRSSF[Sar]A[NMeI]LSSTEVGSGT[Hyp]-NH2 (disulfide 3-8; SMILES CC[C@H](C)[C@@H](C(=O)N[C@@H](CC(C)C)C(=O)N[C@@H](CO)C(=O)N[C@@H](CO)C(=O)N[C@H](C(=O)N[C@@H](CCC(=O)O)C(=O)N[C@H](C(=O)NCC(=O)N[C@@H](CO)C(=O)NCC(=O)N[C@H](C(=O)N1C[C@H](O)C[C@H]1C(N)=O)[C@@H](C)O)C(C)C)[C@@H](C)O)N(C)C(=O)[C@H](C)NC(=O)CN(C)C(=O)[C@H](Cc1ccccc1)NC(=O)[C@H](CO)NC(=O)[C@H](CO)NC(=O)[C@H](CCCNC(=N)N)NC(=O)[C@H](CCC(N)=O)NC(=O)[C@H](CC(C)C)NC(=O)[C@H](Cc1ccccc1)NC(=O)[C@H](Cc1c[nH]cn1)NC(=O)[C@H](C)NC(=O)[C@H](CC(C)C)NC(=O)[C@H](CCCNC(=N)N)NC(=O)[C@H](CCC(=O)O)NC(=O)[C@@H](NC(=O)[C@H](C)NC(=O)[C@@H]1CSSC[C@H](NC(=O)[C@H](CCCNC(=N)N)NC(=O)CC[C@H](NC(=O)CCCCCCCCCCCCCCCCCCC(=O)O)C(=O)O)C(=O)NCC(=O)N[C@@H]([C@@H](C)O)C(=O)N[C@@H](C)C(=O)N[C@@H]([C@@H](C)O)C(=O)N1)[C@@H](C)O) [[19CD]-isoGlu-R-C( )-GTAT-C( )-ATERLAHFLQRSSF-Gly(Me)-A-Ile(Me)-LSSTEVGSGT-Hyp-NH2 (Compd. 52)] | 0.09 nM
{C20 diacid}-[γGlu]RCGTATCATERLAHFLQRSSF[Sar]A[NMeI]LSSTEVGS[Aad]T[Hyp]-NH2 (disulfide 3-8; SMILES CC[C@H](C)[C@@H](C(=O)N[C@@H](CC(C)C)C(=O)N[C@@H](CO)C(=O)N[C@@H](CO)C(=O)N[C@H](C(=O)N[C@@H](CCC(=O)O)C(=O)N[C@H](C(=O)NCC(=O)N[C@@H](CO)C(=O)N[C@@H](CCCC(=O)O)C(=O)N[C@H](C(=O)N1C[C@H](O)C[C@H]1C(N)=O)[C@@H](C)O)C(C)C)[C@@H](C)O)N(C)C(=O)[C@H](C)NC(=O)CN(C)C(=O)[C@H](Cc1ccccc1)NC(=O)[C@H](CO)NC(=O)[C@H](CO)NC(=O)[C@H](CCCNC(=N)N)NC(=O)[C@H](CCC(N)=O)NC(=O)[C@H](CC(C)C)NC(=O)[C@H](Cc1ccccc1)NC(=O)[C@H](Cc1c[nH]cn1)NC(=O)[C@H](C)NC(=O)[C@H](CC(C)C)NC(=O)[C@H](CCCNC(=N)N)NC(=O)[C@H](CCC(=O)O)NC(=O)[C@@H](NC(=O)[C@H](C)NC(=O)[C@@H]1CSSC[C@H](NC(=O)[C@H](CCCNC(=N)N)NC(=O)CC[C@H](NC(=O)CCCCCCCCCCCCCCCCCCC(=O)O)C(=O)O)C(=O)NCC(=O)N[C@@H]([C@@H](C)O)C(=O)N[C@@H](C)C(=O)N[C@@H]([C@@H](C)O)C(=O)N1)[C@@H](C)O) [[19CD]-isoGlu-R-C( )-GTAT-C( )-ATERLAHFLQRSSF-Gly(Me)-A-Ile(Me)-LSSTEVGS-Aad-T-Hyp-NH2 (Compd. 53)] | 0.13 nM
{C20 diacid}-[γGlu]RCGTATCATERLADFLQRSSF[Sar]A[NMeI]LSSTEVGSNT[Hyp]-NH2 (disulfide 3-8; SMILES CC[C@H](C)[C@@H](C(=O)N[C@@H](CC(C)C)C(=O)N[C@@H](CO)C(=O)N[C@@H](CO)C(=O)N[C@H](C(=O)N[C@@H](CCC(=O)O)C(=O)N[C@H](C(=O)NCC(=O)N[C@@H](CO)C(=O)N[C@@H](CC(N)=O)C(=O)N[C@H](C(=O)N1C[C@H](O)C[C@H]1C(N)=O)[C@@H](C)O)C(C)C)[C@@H](C)O)N(C)C(=O)[C@H](C)NC(=O)CN(C)C(=O)[C@H](Cc1ccccc1)NC(=O)[C@H](CO)NC(=O)[C@H](CO)NC(=O)[C@H](CCCNC(=N)N)NC(=O)[C@H](CCC(N)=O)NC(=O)[C@H](CC(C)C)NC(=O)[C@H](Cc1ccccc1)NC(=O)[C@H](CC(=O)O)NC(=O)[C@H](C)NC(=O)[C@H](CC(C)C)NC(=O)[C@H](CCCNC(=N)N)NC(=O)[C@H](CCC(=O)O)NC(=O)[C@@H](NC(=O)[C@H](C)NC(=O)[C@@H]1CSSC[C@H](NC(=O)[C@H](CCCNC(=N)N)NC(=O)CC[C@H](NC(=O)CCCCCCCCCCCCCCCCCCC(=O)O)C(=O)O)C(=O)NCC(=O)N[C@@H]([C@@H](C)O)C(=O)N[C@@H](C)C(=O)N[C@@H]([C@@H](C)O)C(=O)N1)[C@@H](C)O) [[19CD]-isoGlu-R-C( )-GTAT-C( )-ATERLADFLQRSSF-Gly(Me)-A-Ile(Me)-LSSTEVGSNT-Hyp-NH2 (Compd. 54)] | 0.14 nM
{C20 diacid-γGlu}-RCNTATCATERLAHFLQRSSF[Sar]A[NMeI]LSSTEVGSNT[Hyp]-NH2 (disulfide 2-7) [[19CD]-isoGlu-R-C( )-NTAT-C( )-ATERLAHFLQRSSF-Gly(Me)-A-Ile(Me)-LSSTEVGSNT-Hyp-NH2 (Compd. 56)] | 0.08 nM
{C20 diacid}-[γGlu]RCNTATCATQRLAHFLQRSSF[Sar]A[NMeI]LSSTEVGSNT[Hyp]-NH2 (disulfide 3-8) [[19CD]-isoGlu-R-C( )-NTAT-C( )-ATQRLAHFLQRSSF-Gly(Me)-A-Ile(Me)-LSSTEVGSNT-Hyp-NH2 (Compd. 58)] | 0.1 nM
